Measurements from US20220169997.

Experiments:
[1] = system: PR402: SP(HSA)-PTEN-L-HSA-6xHis
[2] = system: PR405: SP(HSA)-PTEN-L-MMP2/9-HSA-6xHis
[3] = system: PR406: SP(HSA)-PTEN-L-cathepsin B-HSA-6xHis
[4] = system: PR407: SP(HSA)-PTEN-L-cathepsin B*-HSA-6xHis
[5] = system: PR408: SP(HSA)-PTEN-L-cathepsinB**-HSA-6xHis

Chain of Recombinant active MMP2 protease (Enzo cat. #BML-SE237-0010) (chain, as listed by the source): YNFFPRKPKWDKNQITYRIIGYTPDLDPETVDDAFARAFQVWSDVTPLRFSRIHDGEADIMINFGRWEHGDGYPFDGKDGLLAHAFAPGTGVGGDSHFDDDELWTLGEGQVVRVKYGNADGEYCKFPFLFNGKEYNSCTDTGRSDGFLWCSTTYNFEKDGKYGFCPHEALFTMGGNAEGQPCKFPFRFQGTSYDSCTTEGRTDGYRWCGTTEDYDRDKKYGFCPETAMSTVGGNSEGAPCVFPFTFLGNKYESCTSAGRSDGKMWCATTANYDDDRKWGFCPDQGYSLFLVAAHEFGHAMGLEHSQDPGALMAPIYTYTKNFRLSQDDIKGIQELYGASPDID

Substance	in vitro cleavage of the fusion in CHO-3E7 supernatant, WB with F-1 anti-PTEN (no cleavage) [1]	in vitro cleavage of the fusion in CHO-3E7 supernatant (0.3 µg/ml CATSB), WB with F-1 anti-PTEN (no cleavage) [2]	in vitro cleavage of the fusion in CHO-3E7 supernatant (0.3 µg/ml CATSB), WB with F-1 anti-PTEN (no cleavage) [3]	in vitro cleavage of the fusion in CHO-3E7 supernatant (20 nM MMP2, 0/4/21 h), WB with F-1 anti-PTEN [2]	in vitro cleavage of the fusion in CHO-3E7 supernatant, WB with F-1 anti-PTEN (no cleavage) [4]	in vitro cleavage of the fusion in CHO-3E7 supernatant, WB with F-1 anti-PTEN (no cleavage) [5]	in vitro cleavage of the fusion in CHO-3E7 supernatant, WB with F-1 anti-PTEN (no cleavage) [3]
Active CATSB (BioVision #7580-5)	PR402 was not appreciably cleaved by either recombinant MMP2 or CATSB	PR405 (SEQ ID NO:129; cDNA SEQ ID NO:157) was not cleaved by CATSB	though it did not cleave PR406 (SEQ ID NO:130; cDNA SEQ ID NO:158)				
Recombinant active MMP2 protease (Enzo cat. #BML-SE237-0010)	PR402 was not appreciably cleaved by either recombinant MMP2 or CATSB			MMP2 did however cleave its consensus site (SEQ ID NO:165) on PR405 only; this cleavage released a PTEN-L-like fragment (˜70 KDa)	MMP2 did however cleave its consensus site (SEQ ID NO:165) on PR405 only	MMP2 did however cleave its consensus site (SEQ ID NO:165) on PR405 only	MMP2 did however cleave its consensus site (SEQ ID NO:165) on PR405 only
